Laboratory results from patent US20060257938A1, “Method of screening for drugs that block ligand binding to a lipid binding protein” (priority 2005, published 2006).
Changes are numbered by the printed parent chain. In names and notes the source's numbering stands.

B1: L72G: FABP probe clone, substitution L72G vs SEQ ID NO: 2 (protein, listed as Rattus norvegicus)
chain: AFDGTWKVDRNENYEKFMEKMGINVVKRKLGAHDNLKLTITQEGNKFTVKESSNFRNIDVVFELGVDFAYSGADGTELTGTWTMEGNKLVGKFKRVDNGKELIAVREISGNELIQTYTYEGVEAKRIFKKE
modifications: PEPTIDE (1)...(131) wild-type rat intestinal fatty acid binding protein
B2: Y117A, L72A: FABP probe clone, substitutions Y117A, L72A vs SEQ ID NO: 2 (protein, listed as Rattus norvegicus)
chain: B1 chain with G72A, Y117A
modifications: PEPTIDE (1)...(131) wild-type rat intestinal fatty acid binding protein
B3: W82F, L72A: FABP probe clone, substitutions W82F, L72A vs SEQ ID NO: 2 (protein, listed as Rattus norvegicus)
chain: B1 chain with G72A, W82F
modifications: PEPTIDE (1)...(131) wild-type rat intestinal fatty acid binding protein
B4: L72A: FABP probe clone, substitution L72A vs SEQ ID NO: 2 (protein of ADIFAB2) (protein, listed as Rattus norvegicus)
chain: B1 chain with G72A
modifications: PEPTIDE (1)...(131) wild-type rat intestinal fatty acid binding protein
B5: A73I, L72A: FABP probe clone, substitutions A73I, L72A vs SEQ ID NO: 2 (protein, listed as Rattus norvegicus)
chain: B1 chain with G72A, A73I
modifications: PEPTIDE (1)...(131) wild-type rat intestinal fatty acid binding protein
B6: L72M: FABP probe clone, substitution L72M vs SEQ ID NO: 2 (protein, listed as Rattus norvegicus)
chain: B1 chain with G72M
modifications: PEPTIDE (1)...(131) wild-type rat intestinal fatty acid binding protein
B7: D74F, L72A: FABP probe clone, substitutions D74F, L72A vs SEQ ID NO: 2 (protein, listed as Rattus norvegicus)
chain: B1 chain with G72A, D74F
modifications: PEPTIDE (1)...(131) wild-type rat intestinal fatty acid binding protein
B8: Y117S, L72A: FABP probe clone, substitutions Y117S, L72A vs SEQ ID NO: 2 (protein, listed as Rattus norvegicus)
chain: B1 chain with G72A, Y117S
modifications: PEPTIDE (1)...(131) wild-type rat intestinal fatty acid binding protein
B9: L78F, L72A: FABP probe clone, substitutions L78F, L72A vs SEQ ID NO: 2 (protein, listed as Rattus norvegicus)
chain: B1 chain with G72A, L78F
modifications: PEPTIDE (1)...(131) wild-type rat intestinal fatty acid binding protein
B10: A73F, L72A: FABP probe clone, substitutions A73F, L72A vs SEQ ID NO: 2 (protein, listed as Rattus norvegicus)
chain: B1 chain with G72A, A73F
modifications: PEPTIDE (1)...(131) wild-type rat intestinal fatty acid binding protein
B11: R106W, L72A: FABP probe clone, substitutions R106W, L72A vs SEQ ID NO: 2 (protein, listed as Rattus norvegicus)
chain: B1 chain with G72A, R106W
modifications: PEPTIDE (1)...(131) wild-type rat intestinal fatty acid binding protein
B12: L1P7B11: FABP probe, substitutions Y14I L38I L72V vs SEQ ID NO: 2 (protein, listed as Rattus norvegicus)
chain: B1 chain with Y14I, L38I, G72V
modifications: PEPTIDE (1)...(131) wild-type rat intestinal fatty acid binding protein
B13: L1P12G10: FABP probe, substitution Y14I vs SEQ ID NO: 2 (protein, listed as Rattus norvegicus)
chain: B1 chain with Y14I, G72L
modifications: PEPTIDE (1)...(131) wild-type rat intestinal fatty acid binding protein
B14: L1P3D6: FABP probe, substitution Y14L vs SEQ ID NO: 2 (protein, listed as Rattus norvegicus)
chain: B1 chain with Y14L, G72L
modifications: PEPTIDE (1)...(131) wild-type rat intestinal fatty acid binding protein
B15: L1P2F7: FABP probe, substitutions Y14I L72G Y117V vs SEQ ID NO: 2 (protein, listed as Rattus norvegicus)
chain: B1 chain with Y14I, Y117V
modifications: PEPTIDE (1)...(131) wild-type rat intestinal fatty acid binding protein
B16: L1P12F12: FABP probe, substitutions Y14L L72G Y117V vs SEQ ID NO: 2 (protein, listed as Rattus norvegicus)
chain: B1 chain with Y14L, Y117V
modifications: PEPTIDE (1)...(131) wild-type rat intestinal fatty acid binding protein
B17: L1P12E11: FABP probe, substitutions Y14L L72W vs SEQ ID NO: 2 (protein, listed as Rattus norvegicus)
chain: B1 chain with Y14L, G72W
modifications: PEPTIDE (1)...(131) wild-type rat intestinal fatty acid binding protein
B18: 55V, 72A (protein, listed as Rattus norvegicus)
chain: B1 chain with F55V, G72A
modifications: PEPTIDE (1)...(131) wild-type rat intestinal fatty acid binding protein
B19: 23Y, 72A (protein, listed as Rattus norvegicus)
chain: B1 chain with I23Y, G72A
modifications: PEPTIDE (1)...(131) wild-type rat intestinal fatty acid binding protein

assay: Probe fluorescence ratio response to palmitic acid relative to ADIFAB2; type: binding; conditions: Table 3
In short: (§1)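 Each fatty acid's response was expressed relative to ADIFAB2, the rI-FABP-L72A probe, as ΔR/ΔRreference. ΔR is the change in the background-corrected two-wavelength intensity ratio R=Fλ1/Fλ2 from its analyte-free baseline R0. Emission was read near about 420-480 nm for unbound and about 495-580 nm for FFA-bound probe.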

Row | Molecule | DR/DRAD2 PA
1 | B1 | 0.26
2 | B2 | 0.32
3 | B3 | 0.41
4 | B4 | 1.02
5 | B5 | −0.04
6 | B6 | 1.32
7 | B7 | 0.93
8 | B8 | 0.55
9 | B9 | 0.91
10 | B10 | 1.13
11 | B11 | 0.41

same assay, conditions: Table 4

Row | Molecule | ΔR/DRAΔ2 PA
12 | B12 | 0.8
13 | B13 | 0.8
14 | B14 | 0.5
15 | B15 | 0.1
16 | B16 | 0.1
17 | B17 | −0.1

same assay, conditions: response relative to ADIFAB2

Row | Molecule | DR/DR PA
18 | B18 | 0.374
19 | B19 | 0.281

assay: Probe fluorescence ratio response to arachidonic acid relative to ADIFAB2; type: binding; conditions: Table 3; Arachidonic acid
In short: as §1

Row | Molecule | DR/DRAD2 AA
20 | B1 | 0.62
21 | B2 | 1.27
22 | B3 | 0.68
23 | B4 | 1.12
24 | B5 | 0.38
25 | B6 | 1.31
26 | B7 | 0.44
27 | B8 | 1.35
28 | B9 | 2.04
29 | B10 | 1.21
30 | B11 | 1.11

same assay, conditions: Table 4; Arachidonic acid

Row | Molecule | ΔR/DRAΔ2 AA
31 | B12 | 0.7
32 | B13 | 0.8
33 | B14 | 0.9
34 | B15 | 0.9
35 | B16 | 0.9
36 | B17 | −0.5

same assay, conditions: arachidonic acid; response relative to ADIFAB2

Row | Molecule | DR/DR AA
37 | B18 | 0.581
38 | B19 | 0.492

assay: Probe fluorescence ratio response to linolenic acid relative to ADIFAB2; type: binding; conditions: Table 3
In short: as §1

Row | Molecule | DR/DRAD2 LNA
39 | B1 | 0.48
40 | B2 | 0.62
41 | B3 | 0.76
42 | B4 | 1.16
43 | B5 | 0.03
44 | B6 | 1.35
45 | B7 | 1.04
46 | B8 | 1.07
47 | B9 | 2.05
48 | B10 | 1.86
49 | B11 | 1.03

same assay, conditions: Table 4

Row | Molecule | ΔR/DRAΔ2 LNA
50 | B12 | 0.9
51 | B13 | 1.0
52 | B14 | 0.9
53 | B15 | 0.5
54 | B16 | 0.5
55 | B17 | −0.7

same assay, conditions: response relative to ADIFAB2

Row | Molecule | DR/DR LNA
56 | B18 | 0.477
57 | B19 | 0.443

assay: Probe fluorescence ratio response to oleic acid relative to ADIFAB2; type: binding; conditions: Table 3
In short: as §1

Row | Molecule | DR/DRAD2 OA
58 | B1 | 0.52
59 | B2 | 0.93
60 | B3 | 0.78
61 | B4 | 1.15
62 | B5 | −0.04
63 | B6 | 1.49
64 | B7 | 0.51
65 | B8 | 1.19
66 | B9 | 1.83
67 | B10 | 0.73
68 | B11 | 0.99

same assay, conditions: Table 4

Row | Molecule | ΔR/DRAΔ2 OA
69 | B12 | 0.4
70 | B13 | 0.5
71 | B14 | 0.5
72 | B15 | 0.3
73 | B16 | 0.3
74 | B17 | −1.0

same assay, conditions: response relative to ADIFAB2

Row | Molecule | DR/DR OA
75 | B18 | 0.468
76 | B19 | 0.412

assay: Probe fluorescence ratio response to linoleic acid relative to ADIFAB2; type: binding; conditions: Table 3
In short: as §1

Row | Molecule | DR/DRAD2 LA
77 | B1 | 0.48
78 | B2 | 1.01
79 | B3 | 1.08
80 | B4 | 1.14
81 | B5 | −0.04
82 | B6 | 1.46
83 | B7 | 0.67
84 | B8 | 1.42
85 | B9 | 2
86 | B10 | 1.23
87 | B11 | 1.04

same assay, conditions: Table 4

Row | Molecule | ΔR/DRAΔ2 LA
88 | B12 | 0.9
89 | B13 | 0.9
90 | B14 | 0.8
91 | B15 | 0.6
92 | B16 | 0.5
93 | B17 | −0.7

same assay, conditions: response relative to ADIFAB2

Row | Molecule | DR/DR LA
94 | B18 | 0.432
95 | B19 | 0.442
